The numbers were not newly measured in paper PMC8864681, which cites them from elsewhere.

In general, pKa refers to the negative logarithm of the acid dissociation constant.

Among the targets are Asp67 (UniProt position 1513, LKPGVDYTITV); Asp14 (UniProt position 40, ERQHMDSSTSA); Asp28 (UniProt position 50, MTDDIDEVRWE); Asp26 (UniProt position 26, KLVVVDFSATW).

With “Fibronectin, tenth type III cell adhesion module (FN10) (Homo sapiens)”, the pKa with Asp67 is recorded as 4.2.

Take “Ribonuclease A (pancreatic ribonuclease) (Bos taurus)”: the pKa in the series with Asp14 was 2.0.

Regarding “T-cell surface antigen CD2 (cell adhesion molecule CD2) (Rattus rattus as printed ('black rat'); the PDB 1HNG source is commonly annotated as rat (Rattus norvegicus))”, the pKa with Asp28 is given as 3.57.

“Thioredoxin (recombinant human) (Homo sapiens)”: the pKa with Asp26 is 9.9.
